We go through four molecules from doi:10.1101/2021.01.14.426755 (bioRxiv, 2021).

To fix the notation:
T1: Rad3 (yeast (endogenous, purified from yeast), UniProt P06839 1-778)
T1 sequence: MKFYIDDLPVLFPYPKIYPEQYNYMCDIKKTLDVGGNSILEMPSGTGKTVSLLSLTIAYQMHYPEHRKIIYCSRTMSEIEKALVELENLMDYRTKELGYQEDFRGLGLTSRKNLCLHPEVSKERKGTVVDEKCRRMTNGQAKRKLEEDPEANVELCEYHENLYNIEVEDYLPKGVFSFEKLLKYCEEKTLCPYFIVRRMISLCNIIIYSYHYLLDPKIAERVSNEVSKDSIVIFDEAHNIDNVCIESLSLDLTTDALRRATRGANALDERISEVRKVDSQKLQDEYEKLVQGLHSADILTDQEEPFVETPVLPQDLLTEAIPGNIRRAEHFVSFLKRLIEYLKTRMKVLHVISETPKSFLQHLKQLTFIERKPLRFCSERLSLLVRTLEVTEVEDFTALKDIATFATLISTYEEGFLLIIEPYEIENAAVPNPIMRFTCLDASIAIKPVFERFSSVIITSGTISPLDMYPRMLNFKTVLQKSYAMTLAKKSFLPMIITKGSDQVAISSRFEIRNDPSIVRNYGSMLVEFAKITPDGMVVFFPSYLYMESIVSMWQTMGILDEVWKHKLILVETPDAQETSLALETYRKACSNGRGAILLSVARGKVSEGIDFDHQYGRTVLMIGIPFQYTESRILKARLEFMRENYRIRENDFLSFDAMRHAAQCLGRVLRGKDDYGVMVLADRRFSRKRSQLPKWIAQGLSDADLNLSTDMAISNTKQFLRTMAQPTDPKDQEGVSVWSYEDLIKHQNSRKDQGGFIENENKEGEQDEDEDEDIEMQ

T2: Rad4-Rad23-Rad33 complex (yeast, UniProt P14736 1-754; P32628 1-398; Q04231 1-177)
T2 sequence 1: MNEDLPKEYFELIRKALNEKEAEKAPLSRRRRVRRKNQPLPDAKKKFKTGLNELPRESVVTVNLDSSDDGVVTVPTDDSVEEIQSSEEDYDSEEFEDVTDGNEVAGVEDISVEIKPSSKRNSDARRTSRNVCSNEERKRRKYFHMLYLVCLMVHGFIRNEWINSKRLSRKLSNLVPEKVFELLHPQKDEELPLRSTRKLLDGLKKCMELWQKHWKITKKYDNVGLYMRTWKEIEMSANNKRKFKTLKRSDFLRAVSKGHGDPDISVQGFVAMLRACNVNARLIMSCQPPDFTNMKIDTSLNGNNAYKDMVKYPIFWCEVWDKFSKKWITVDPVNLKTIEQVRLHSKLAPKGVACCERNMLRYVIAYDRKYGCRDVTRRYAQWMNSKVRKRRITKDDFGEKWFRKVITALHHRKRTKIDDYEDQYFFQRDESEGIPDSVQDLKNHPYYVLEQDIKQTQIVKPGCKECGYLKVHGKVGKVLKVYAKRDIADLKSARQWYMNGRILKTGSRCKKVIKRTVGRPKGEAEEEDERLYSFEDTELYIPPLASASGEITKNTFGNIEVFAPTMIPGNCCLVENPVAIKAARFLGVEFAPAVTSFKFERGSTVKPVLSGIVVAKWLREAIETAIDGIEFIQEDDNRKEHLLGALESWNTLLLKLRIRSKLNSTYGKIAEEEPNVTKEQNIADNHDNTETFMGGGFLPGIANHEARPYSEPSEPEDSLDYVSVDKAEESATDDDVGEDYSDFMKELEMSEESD
T2 sequence 2: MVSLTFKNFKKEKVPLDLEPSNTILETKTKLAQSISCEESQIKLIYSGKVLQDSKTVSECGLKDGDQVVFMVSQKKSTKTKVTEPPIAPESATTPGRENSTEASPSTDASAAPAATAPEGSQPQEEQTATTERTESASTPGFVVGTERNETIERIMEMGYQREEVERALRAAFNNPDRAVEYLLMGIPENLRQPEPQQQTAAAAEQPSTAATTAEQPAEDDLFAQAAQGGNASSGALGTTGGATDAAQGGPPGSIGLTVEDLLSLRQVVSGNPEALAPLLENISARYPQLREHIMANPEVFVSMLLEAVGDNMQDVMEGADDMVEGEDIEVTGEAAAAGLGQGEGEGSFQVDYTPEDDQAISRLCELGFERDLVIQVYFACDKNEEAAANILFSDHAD
T2 sequence 3: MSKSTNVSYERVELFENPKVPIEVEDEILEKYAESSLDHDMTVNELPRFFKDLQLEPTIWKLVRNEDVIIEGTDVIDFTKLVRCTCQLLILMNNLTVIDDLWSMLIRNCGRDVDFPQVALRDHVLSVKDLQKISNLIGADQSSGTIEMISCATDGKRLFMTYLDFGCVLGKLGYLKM

T3: Rad4 (yeast, UniProt P14736 1-754)
T3 sequence: T2 sequence 1

B1: Ssl1 (natural protein)
chain: MAPVVISESEEDEDRVAITRRTKRQVHFDGEGDDRVDQQQQQHSSSHRDRDKHVQRKKKKRLSNRNLQGSNGGYAWEDEIKRSWDLVKVDDEGDMASLVASIVEARKKRTAKKNITPYQRGIIRSLILTLDCSEAMLEKDLRPNRHAMIIQYAIDFVHEFFDQNPISQMGIIIMRNGLAQLVSQVSGNPQDHIDALKSIRKQEPKGNPSLQNALEMARGLLLPVPAHCTREVLIVFGSLSTTDPGDIHQTIDSLVSEKIRVKVLGLSAQVAICKELCKATNYGDESFYKILLDETHLKELFNEAVTPLPVNKINKGFTLVKMGFPTRIFEDTPTFCSCHSKLVYGGYFCPNCHSKVCSLPTVCPCCDLMLILSTHLARSYHHLMPLKTFAEVPTTEKFRSEDCFSCQSRFPILKNHKNGKLLTSSRYRCEDCKQEFCVDCDVFIHEILHNCPGCESKPVIT
B2: Ssl2 (natural protein)
chain: MTDVEGYQPKSKGKIFPDMGESFFSSDEDSPATDAEIDENYDDNRETSEGRGERDTGAMVTGLKKPRKKTKSSRHTAADSSMNQMDAKDKALLQDTNSDIPADFVPDSVSGMFRSHDFSYLRLRPDHASRPLWISPSDGRIILESFSPLAEQAQDFLVTIAEPISRPSHIHEYKITAYSLYAAVSVGLETDDIISVLDRLSKVPVAESIINFIKGATISYGKVKLVIKHNRYFVETTQADILQMLLNDSVIGPLRIDSDHQVQPPEDVLQQQLQQTAGKPATNVNPNDVEAVFSAVIGGDNEREEEDDDIDAVHSFEIANESVEVVKKRCQEIDYPVLEEYDFRNDHRNPDLDIDLKPSTQIRPYQEKSLSKMFGNGRARSGIIVLPCGAGKTLVGITAACTIKKSVIVLCTSSVSVMQWRQQFLQWCTLQPENCAVFTSDNKEMFQTESGLVVSTYSMVANTRNRSHDSQKVMDFLTGREWGFIILDEVHVVPAAMFRRVVSTIAAHAKLGLTATLVREDDKIGDLNFLIGPKLYEANWMELSQKGHIANVQCAEVWCPMTAEFYQEYLRETARKRMLLYIMNPTKFQACQFLIQYHERRGDKIIVFSDNVYALQEYALKMGKPFIYGSTPQQERMNILQNFQYNDQINTIFLSKVGDTSIDLPEATCLIQISSHYGSRRQEAQRLGRILRAKRRNDEGFNAFFYSLVSKDTQEMYYSTKRQAFLVDQGYAFKVITHLHGMENIPNLAYASPRERRELLQEVLLKNEEAAGIEVGDDADNSVGRGSNGHKRFKSKAVRGEGSLSGLAGGEDMAYMEYSTNKNKELKEHHPLIRKMYYKNLKK
B3: Tfb1 (natural protein)
chain: MSHSGAAIFEKVSGIIAINEDVSPAELTWRSTDGDKVHTVVLSTIDKLQATPASSEKMMLRLIGKVDESKKRKDNEGNEVVPKPQRHMFSFNNRTVMDNIKMTLQQIISRYKDADIYEEKRRREESAQHTETPMSSSSVTAGTPTPHLDTPQLNNGAPLINTAKLDDSLSKEKLLTNLKLQQSLLKGNKVLMKVFQETVINAGLPPSEFWSTRIPLLRAFALSTSQKVGPYNVLSTIKPVASSENKVNVNLSREKILNIFENYPIVKKAYTDNVPKNFKEPEFWARFFSSKLFRKLRGEKIMQNDRGDVIIDRYLTLDQEFDRKDDDMLLHPVKKIIDLDGNIQDDPVVRGNRPDFTMQPGVDINGNSDGTVDILKGMNRLSEKMIMALKNEYSRTNLQNKSNITNDEEDEDNDERNELKIDDLNESYKTNYAIIHLKRNAHEKTTDNDAKSSADSIKNADLKVSNQQMLQQLSLVMDNLINKLDLNQVVPNNEVSNKINKRVITAIKINAKQAKHNNVNSALGSFVDNTSQANELEVKSTLPIDLLESCRMLHTTCCEFLKHFYIHFQSGEQKQASTVKKLYNHLKDCIEKLNELFQDVLNGDGESMSNTCTAYLKPVLNSITLATHKYDEYFNEYNNNSN
B4: Rad33 (natural protein)
chain: T2 sequence 3

One assay addresses T1, Rad3. Nature of the assay: cryo-EM structure.
Another assay addresses T2, Rad4-Rad23-Rad33 complex. Nature of the assay: cross-linking.
In another assay the target is T3, Rad4. Nature of the assay: cryo-EM structure.
In the assay “Ssl2” the target is B2. Nature of the assay: cryo-EM structure.

B1: in the assay with Rad3, the binding result was “binds”.

As to B2, the binding result with Rad4-Rad23-Rad33 complex is listed as “binds”.

Consider B3, for which the binding result in the assay with Rad4-Rad23-Rad33 complex, with Rad3 and with Rad4 was “binds” throughout.

As for B4, the binding result with Ssl2 and with Rad4 was “binds” in each case.
